Earlier results on one substance are cited in article PMC11335090.

The target in this data set is AXL (Homo sapiens) (UniProt P30530).
UniProt P30530, sequence (P30530 26-451): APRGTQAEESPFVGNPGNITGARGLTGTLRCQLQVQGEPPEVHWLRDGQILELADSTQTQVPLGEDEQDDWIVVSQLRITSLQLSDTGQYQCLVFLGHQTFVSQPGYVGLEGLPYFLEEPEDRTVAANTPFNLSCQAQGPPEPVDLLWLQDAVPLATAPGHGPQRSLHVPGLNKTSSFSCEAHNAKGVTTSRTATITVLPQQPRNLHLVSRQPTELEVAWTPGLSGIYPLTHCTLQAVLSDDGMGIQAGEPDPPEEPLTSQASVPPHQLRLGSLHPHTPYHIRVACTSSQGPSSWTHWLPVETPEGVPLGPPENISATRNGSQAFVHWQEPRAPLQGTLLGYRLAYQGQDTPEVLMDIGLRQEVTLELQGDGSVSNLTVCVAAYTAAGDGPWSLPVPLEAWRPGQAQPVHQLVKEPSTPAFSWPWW

As to GAS6 (from UniProt Q14393), the Kd (commonly the equilibrium constant for the complex coming apart) is 0.032 nM.
